T1: APOL6-myc-FLAG (human, UniProt Q9BWW8 1-343)
T1 construct: whole, on cells; In fixed, permeabilized transfected COS cells; untagged APOL6 in the western blots; not shown: C-terminal myc-FLAG tag
T1 sequence (looked up): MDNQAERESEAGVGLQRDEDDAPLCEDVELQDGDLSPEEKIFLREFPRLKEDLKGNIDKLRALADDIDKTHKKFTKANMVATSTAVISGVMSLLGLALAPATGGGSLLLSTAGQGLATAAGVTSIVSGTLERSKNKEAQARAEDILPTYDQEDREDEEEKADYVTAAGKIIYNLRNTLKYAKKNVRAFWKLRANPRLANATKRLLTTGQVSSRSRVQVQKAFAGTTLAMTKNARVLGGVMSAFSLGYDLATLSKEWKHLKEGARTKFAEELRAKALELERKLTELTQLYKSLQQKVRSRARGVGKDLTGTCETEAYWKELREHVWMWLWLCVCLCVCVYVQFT

T2: untagged APOL1-G0, KIK variant, transiently expressed (COS cells) (human, UniProt O14791 29-398)
T2 construct: Origene SC109941 clone with E150K, M228I, R255K
T2 chain: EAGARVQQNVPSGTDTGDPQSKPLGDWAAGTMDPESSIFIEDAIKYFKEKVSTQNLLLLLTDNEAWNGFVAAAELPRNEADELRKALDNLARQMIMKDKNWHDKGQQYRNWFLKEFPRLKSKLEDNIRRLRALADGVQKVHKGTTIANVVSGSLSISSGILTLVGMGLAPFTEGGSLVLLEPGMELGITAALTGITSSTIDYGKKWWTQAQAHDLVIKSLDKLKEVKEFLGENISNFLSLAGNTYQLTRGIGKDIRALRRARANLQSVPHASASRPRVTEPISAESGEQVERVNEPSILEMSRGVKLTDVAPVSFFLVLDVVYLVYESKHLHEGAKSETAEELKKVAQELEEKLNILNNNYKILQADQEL


Key:
APOL6-myc-FLAG = molecular target: T1, APOL6-myc-FLAG; test: immunofluorescence on transfected COS cells; grade
Description: COS cells were transfected as in FIG. 31A except APOL1 and APOL2 were also C-terminally myc-FLAG tagged. Overlays of APOL with epitope tags: either mouse anti-FLAG-M2 or mouse anti-myc 9E10 for anti-APOL1 rabmabs; or rabbit anti-Myc 71D10 in conjunction with mouse anti-APOL1. Signals indicate the two antibodies overlap (i.e. anti-APOL1 cross-reacts with that APOL); signals (epitope tag only) indicate no cross-reactivity. Alexa647 anti-rabbit or mouse were used for the tags to rule out the possibility that any colocalization was a bleed-through artifact. Sparsely transfected areas were imaged to permit evaluation of background staining in adjacent untransfected cells—DAPI nuclear staining identifies both untransfected and transfected cell nuclei. […] Note that none of the antibodies cross-reacted with the more distantly related APOL6. *, APOL2-myc-FLAG is presumably misfolded, since it is not as cross-reactive as untagged APOL2 (compare FIG. 31A) with several antibodies. Commercial antibodies are Sigma HPA018885, Epitomics EPR2907 (2) (Epito) and Proteintech 11486-2-AP (Ptech).
Cells were plated on LabTekII (Nalge Nunc 154534) slides and fixed at 70-100% confluency. For mAb screening, cells were fixed/permeabilized for 5 min in −20° C. methanol (EMD MX0485-6). For all other experiments, cells were fixed in 3% paraformaldehyde in PBS (EMS 15710) for 20 mins at room temperature, quenched with 50 mM NH₄Cl in PBS for 10 mins, then permeabilized with 0.1% TX-100 in PBS for 4 mins or for 1h in saponin buffer [0.4% saponin (Sigma S7900), 1% bovine serum albumin (BSA; Sigma A2153), 2% fetal bovine serum (Seradigm) in PBS]. First antibodies (stored sterile at 4° C.) were applied for 1 h at room temperature, at 1 μg/ml for screening on transfected cells or at subsequently optimized concentrations for detecting endogenous APOL1. After 3×10 min washes in PBS (for Methanol or TX-100 protocols) or saponin buffer (saponin protocol), secondary antibodies were applied at 1.88 μg/ml for 1 h at room temperature, washed 3× and mounted under No. 1.5 coverslips in ProLong Gold with DAPI (4′,6-diamidino-2-phenylindole; Life Technologies P36931).

[1] = molecular target: T2, untagged APOL1-G0, KIK variant, …; test: immunofluorescence on transfected COS cells, 1 µg/ml; grade

binding result (APOL6-myc-FLAG)	binding result [1]	Binder
no binding (tested: 1 µg/ml)	binds	antibody 3.6D12 (antibody, V domains shown, Mouse mAb (Method #3), cloned as murine IgG2a LALAPG; Early screens used hybridoma-purified antibody; also called mAb 3.6D12) VH: EVMLVESGGGLVRPGGSLKLSCTASGFTFSRCAMSWVRQTPEKRLEWVSAISRDSTYTYYSDSVKGRFTVSRDNAKNTLYLQMSSLRSEDTAMYYCARQIDDYYVDALDYWGQGTSVTVSS VL: DVQITQSPSYLAASPGETITINCRASKIISKYLAWYQEKPGKTIKLLIYSGFTLQSGIPSRFSGSGSGTDFTLTISSLEPEDFAMYYCQQHNEYPLTFGAGTKLEIKR
	binds	antibody 4.12E5 (antibody, V domains shown, Mouse mAb, cloned as murine IgG2a LALAPG) VH: EVQLQQSGPELVKTGASVKISCKASGYSFTGYFMHWVKQSHGKSLEWIGYISCYNGASVYNQRFKGKATFTIDTSSSTAYMQFNSLTSEDSAVYYCARDVLRYPRYAVDYWGQGTSVTVSS VL: not shown
no binding (tested: 1 µg/ml)	binds	antibody 4.17A5 (antibody, V domains shown, Mouse mAb (Method #4), cloned as murine IgG2a LALAPG; also called mAb 4.17A5) VH: QVQLQQSGPELLKPGASVKISCKGSGYAFSNSWINWVKLRPGQGLEWIGRIYPGDGDTKYNGKFKGKATLTADKSSSTAHMQLRSLTSVDSAVYFCARFPFGKYEGPGAMDYWGQGTSVTVSS VL: DIQMTQTTSSLSASLGDRVTISCRASQDISSYLNWYQQKPDGTIKLLIYYTSRLHSGVPSRFSGSGSGTDFSLTISNLEQEDIATYFCQQGNTLPYTFGGGTKLEIKR
no binding (tested: 1 µg/ml)	binds	antibody 3.7D6 (antibody, V domains shown, Mouse mAb, cloned as murine IgG2a LALAPG; those versions are not written separately; also called PFD antibody 3.7D6) VH: QIQLVQSGPDLKKPGETVKISCRTSGYAFTNYGVNWVKQAPGKGLKWMGWINTNTGQTTYAEEFRGRFAISLETSASTAFLTISNLKNEDSATYFCARLIYDGDYISSDFWGQGTTLTVSS VL: DIQMTQSPDSLSASVGETVTITCGASENIYGALNWYQRKQGKSPQLLIYGATNLADGMSSRFSGSRSGRQYSLKISSLHPDDVATYYCQNALSMPYTFGGGTKLEIKR
no binding (tested: 1 µg/ml)	binds	rabbit monoclonal antibody 5.17D12 (antibody, V domains shown, Rabbit mAb (Method #5), recombinant; also called rabmab 5.17D12) VH: QSLEESGGDLVKPGASLTLTCTASGFSFSSNYYMCWVRQAPGKGLEWIACVYVGSGGSTYYASWAKGRFTFSKTSSTTWTLQMTSLTAADTATYFCARDLSYAGDLWGPGTLVTVSS VL: DPVMTQTPASVSEPVGGTVTINCQASESISSYLAWYQQKPGQPPKLLIYGASNLASGVPSRFKGSGSGTEYTLTISDLECDDAATYYCQSAYYSNSGGHAFGGGTEVVVKG
no binding (tested: 1 µg/ml)	binds	antibody 3.1C1 (antibody, V domains shown, Mouse mAb, cloned as murine IgG2a LALAPG; not written separately; also called SRA-ID mAb 3.1C1) VH: QVQLQQSGPELVKPGASVRISCKASGYTFTNYFIHWVKQRPGQGLEWIGWINPGNLNTKYTEEFKGKATLTADKSSSTAYIQLNSLTSEDSAVYFCVNGNPFVYWGQGTLVTVSA VL: DIVMTQSPSSLTVIAGEKVTLNCKSSQSLLNSGNQKKYLTWLQQKPGQPPKLLIYWTSTRDSGVPDRFTGSGSGTDFTLTISSVQAEDLAVYYCQNDYSYPLTFGAGTKLEIKR
no binding (tested: 1 µg/ml)	binds	antibody 3.6E10 (antibody, V domains shown, Mouse mAb, cloned as murine IgG2a LALAPG) VH: QVQLQQSGAELAKPGASVKMSCKASGYIFTSYYLHWVKQRPGQGLEWIGYINPNTGYTEYTQNFKDRATLTADKSSSTAYMQLTSLTSEDSAVYFCVNGNPFVYWGQGTLVTVSA VL: DIVMTQSPSSLTVTTGEKVTMTCRSSQSLLNSGNQKNYLTWFQQKPGQPPKLLIYWTSTRYSGVPDRFTGSGSGTDFTLTISSVQAEDLAVYYCQNDYSYPLTFGAGTKLEIKR

From US20230071609A1 (Genentech, published 2023)
